The values below come from article PMC10350915, “Development of a New Class of CXCR4-Targeting Radioligands Based on the Endogenous Antagonist EPI-X4 for Oncological Applications” (Journal of Medicinal Chemistry, 2023).

Square brackets hold non-standard residues; d marks the D form. Peptide text beside a SMILES is read from it. * marks the point of attachment. DOTA = O=C(O)CN1CCN(CC(=O)O)CCN(CC(=O)*)CCN(CC(=O)O)CC1; Palmitoyl = CCCCCCCCCCCCCCCC(=O)*

Broadly, the IC50 is the point on the concentration scale where inhibition reaches its midpoint.

For series [1], the system named is Jurkat xenografts. Type of series: in vivo, mouse. The settings on record: 1 h p.i., SPECT/CT or PET/CT. The method, then: The ability of the ^177Lu ligands to target CXCR4 in vivo was assessed by SPECT/CT imaging in Jurkat xenografts. […] 1 h after injection, the remaining amount of radioligand in the body (and vice versa, the washout) was quantified by measuring the total body activity (mouse) in a dose calibrator. The % of the radioligand remaining in the body after 1 h is reported in Figure 6A as % of the remaining activity in reference to the injected activity (100%).
Figure 6 SPECT/CT images as maximum intensity projections (MIPs) of Jurkat tumor-bearing mice at 1 h p.i. of ^177Lu-labeled ligands (200 pmol, ∼15 MBq). […] (B) Same SPECT/CT images of ^177Lu-1, ^177Lu-2, ^177Lu-5, and ^177Lu-6, adapted in a lower scale. T: tumor, L: liver, and K: kidneys. […] TEXT PRINTED IN THE PICTURE: (A) ^177Lu-1: Remaining Activity (% injected): 6 % | (A) ^177Lu-2: Remaining Activity (% injected): 7 % | (A) ^177Lu-5: Remaining Activity (% injected): 7 % | (A) ^177Lu-6: Remaining Activity (% injected): 8 % | (A) ^177Lu-7: Remaining Activity (% injected): 55 % | (A) ^177Lu-9: Remaining Activity (% injected): 94 %
(§1) The experimental protocol involving animals was approved by the Veterinary Office (Department of Health) of the Cantonal Basel-Stadt (Approval No. 30515) in accordance with the Swiss regulations for animal treatment. Female athymic nude-Foxn1^nu/Foxn1^+ mice (Envigo, The Netherlands), 4–6 weeks old, were injected subcutaneously with 10^7 Jurkat cells in a 200 μL (1:1) mixture of PBS and Matrigel (CorningMatrigelMembrane matrix, Fischer Scientific, Germany) on the right shoulder. The tumors were allowed to grow for 3–4 weeks before commencement of the experiments.
Nude mice bearing Jurkat xenografts were intravenously injected via the tail vein with ∼15 MBq (200 pmol) of the ^177Lu ligands and 8 MBq (200 pmol) of ^68Ga-7 were euthanized 1 h post injection (p.i.). The radioactivity in the syringe before and after injection was measured followed by measuring the amount of radioactivity remaining in the sacrificed mice. […]

Series [2] has as its system Jurkat xenografts. The experiment in a line: in vivo. The settings on record: female, athymic nude-Foxn1^nu/Foxn1^+, mouse, iv, 200 pmol, 1 h. The method, then: Quantification of the total body distribution of ^177Lu-7 and ^68Ga-7 was performed in Jurkat xenografted mice after intravenous injection of 100 μL, 200 pmol, with […], respectively (n = 5). The mice were sacrificed at 1 h p.i. ^177Lu-7 and ^68Ga-7 accumulated mainly in the kidneys (83.1 ± 25.5 and 75.6 ± 30.3%IA/g, respectively, p = 0.59), liver (5.19 ± 1.08 and 4.08 ± 1.05%IA/g, respectively, p = 0.07) and tumor (2.25 ± 0.43 and 2.24 ± 0.57%IA/g, respectively, p = 0.97), as already seen in the SPECT/CT and PET/CT images (Figures 6 and 7). Uptake in the tumor was lower than for the kidneys and liver but higher as in all other tissues investigated. […] The uptake seen in the liver might be attributed, at least partially, to the fact that CXCR4 is constitutively expressed in the sinusoidal endothelial cells of the murine liver[38] or could be related to another yet-unknown mechanism previously reported for other CXCR4-targeting probes.[11],[39] Regretfully, there are no direct measurements available for the affinity of ^177Lu-7 with the murine CXCR4 (mCXCR4). This is relevant for assessing its total body distribution. However, we have shown that EPI-X4 and EPI-X4 derivatives are active in mouse models of inflammatory diseases[22],[25] and cancer.[40] More specifically, EPI-X4 derivatives such as JM#21 reduced immune cell influx in lungs of mice suffering from allergic asthma or reduced skin inflammation in a murine model of atopic dermatitis upon topical administration. […] Thus, we speculate that the DOTA conjugate of JM#173 (ligand-7) also cross-reacts to the mCXCR4. […] Last, but not the least, the uptake in the kidneys was predominant, and given the highly hydrophilic character of ^177Lu-7, is attributed, at least partially, to its excretion via this path.
as §1
Quantitative biodistribution studies of ^177Lu-7 (100 μL, 200 pmol, 0.8–1 MBq) and ^68Ga-7 (100 μL, 200 pmol, 2–3 MBq) were performed after intravenous injection of the radioligand via the tail vein on Jurkat xenografts. […] 1 h after injection of the radioligand, mice were sacrificed, organs of interest and blood were collected, rinsed of excess blood, blotted dry, weighed, and counted in a γ-counter. The samples were counted against a suitable diluted aliquot of the injected solution as the standard and the results are expressed as percentage injected activity per gram of tissue (%IA/g). Statistical analysis between selected organs was performed by Welch’s t-test and p values <0.05 were considered statistically significant.

Series [3] deals with T1, CXCR4 (Homo sapiens, UniProt P61073).
T1 construct: Jurkat cells, which are naturally expressing high levels of CXCR4; host or cells: Jurkat, clone E6-1
T1 sequence (P61073 whole entry): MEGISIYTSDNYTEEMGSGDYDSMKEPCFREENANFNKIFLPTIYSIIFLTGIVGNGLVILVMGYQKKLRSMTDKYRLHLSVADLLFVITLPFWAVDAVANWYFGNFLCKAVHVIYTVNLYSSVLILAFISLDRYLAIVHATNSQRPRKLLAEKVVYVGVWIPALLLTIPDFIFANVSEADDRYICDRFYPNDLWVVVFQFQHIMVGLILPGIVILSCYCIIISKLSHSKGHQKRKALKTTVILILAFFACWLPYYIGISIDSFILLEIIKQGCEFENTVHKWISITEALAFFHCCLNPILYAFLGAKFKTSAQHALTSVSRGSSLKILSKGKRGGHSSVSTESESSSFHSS
The experiment in a line: Antibody-competition assay (anti-CXCR4 clone 12G5) on Ghost-CXCR4 cells. The settings on record: competition with CXCR4 antibody clone 12G5, Ghost-CXCR4 cells, 4 °C, 2 h; mean ± SEM. It counts as binding. The method, then: (§2) Binding of the DOTA-conjugated EPI-X4 derivatives to CXCR4 was assessed by an antibody-competition assay[26] using Ghost cells stably transfected with CXCR4, as well as on Jurkat cells, which are naturally expressing high levels of CXCR4. […] The buffer was removed and plates were precooled at 4 °C. Ligands were serially diluted in PBS. The antibody (clone 12G5, Allophycocyanin labeled, BD Pharmingen #555976) was diluted in PBS containing 1% FBS. The antibody was used at a fixed concentration close to its KD. 15 μL of compound and immediately afterward 15 μL of the antibody were added to the cells. Plates were incubated at 4 °C in the dark for 2 h allowing to establish an equilibrium binding. Cells were then washed twice with PBS containing 1% FBS and fixed with 2% paraformaldehyde. Antibody binding was analyzed by flow cytometry (FACS CytoFLEX; Beckman Coulter).

Series [4] concerns the target T1, CXCR4. The experiment in a line: Antibody-competition assay (anti-CXCR4 clone 12G5) on Jurkat cells. The settings on record: competition with CXCR4 antibody clone 12G5, Jurkat cells, 4 °C, 2 h; mean ± SEM. Type of series: binding. The method, then: as §2

As to `CC[C@@H](C)[C@@H](N)C(=O)N[C@@H](CC(C)C)C(=O)N[C@@H](CCCNC(=N)N)C(=O)N[C@@H](Cc1c[nH]c2ccccc12)C(=O)N[C@@H](CO)C(=O)N[C@@H](CCCNC(=N)N)C(=O)N[C@@H](CCCCN)C(=O)N[C@@H](CCCCNC(=O)CN1CCN(CC(=O)O)CCN(CC(=O)O)CCN(CC(=O)O)CC1)C(N)=O` [^68Ga-7, metal not drawn] (H-[dI]LRWSRKK(DOTA)-NH2; N-terminus assumed), the “visualization of CXCR4-expressing tumor xenograft by imaging” value in the series with Jurkat xenografts [1] was “visualized the CXCR4-expressing tumor xenograft”. In the series on Jurkat xenografts [2], this compound yielded an uptake in adrenal of 2.69 ± 0.94 % IA/g, an uptake in femur of 1.29 ± 0.43 % IA/g, an uptake in heart of 0.25 ± 0.09 % IA/g and an uptake in intestine of 0.59 ± 0.18 % IA/g. In the series on Jurkat xenografts [2], this compound showed an uptake in lung of 1.78 ± 0.81 % IA/g, an uptake in muscle of 0.44 ± 0.26 % IA/g, an uptake in pancreas of 0.20 ± 0.11 % IA/g and an uptake in spleen of 0.85 ± 0.29 % IA/g. Besides, the uptake in stomach in the series on Jurkat xenografts [2] was found to be 0.41 ± 0.16 % IA/g.
Consider `CC[C@H](C)[C@H](N)C(=O)N[C@@H](CC(C)C)C(=O)N[C@@H](CCCNC(=N)N)C(=O)N[C@@H](Cc1c[nH]c2ccccc12)C(=O)N[C@@H](CO)C(=O)N[C@@H](CCCNC(=N)N)C(=O)N[C@@H](CCCCN)C(=O)N[C@@H](CC(C)C)C(=O)N1CCC[C@H]1C(=O)N[C@@H](CSSC[C@H](NC(=O)[C@@H]1CCCN1C(=O)[C@H](CC(C)C)NC(=O)[C@H](CCCCN)NC(=O)[C@H](CCCNC(=N)N)NC(=O)[C@H](CO)NC(=O)[C@H](Cc1c[nH]c2ccccc12)NC(=O)[C@H](CCCNC(=N)N)NC(=O)[C@H](CC(C)C)NC(=O)[C@@H](N)[C@@H](C)CC)C(=O)N[C@H](C(=O)N[C@@H](CO)C(=O)N[C@@H](CCCCNC(=O)CN1CCN(CC(=O)O)CCN(CC(=O)O)CCN(CC(=O)O)CC1)C(=O)O)C(C)C)C(=O)N[C@H](C(=O)N[C@@H](CO)C(=O)N[C@@H](CCCCNC(=O)CN1CCN(CC(=O)O)CCN(CC(=O)O)CCN(CC(=O)O)CC1)C(=O)O)C(C)C` [^natLu-1 dimer, metal not drawn], for which the half-maximal inhibitory concentration (IC50) on CXCR4 [3] stood at 225 ± 111 nM; on CXCR4 [4], 122 ± 63 nM.
Take `CC[C@H](C)[C@H](N)C(=O)N[C@@H](CC(C)C)C(=O)N[C@@H](CCCNC(=N)N)C(=O)N[C@@H](Cc1c[nH]c2ccccc12)C(=O)N[C@@H](CO)C(=O)N[C@@H](CCCNC(=N)N)C(=O)N[C@@H](CCCCN)C(=O)N[C@@H](CC(C)C)C(=O)N1CCC[C@H]1C(=O)N[C@@H](CO)C(=O)N[C@H](C(=O)N[C@@H](CO)C(=O)N[C@@H](CCCCNC(=O)CN1CCN(CC(=O)O)CCN(CC(=O)O)CCN(CC(=O)O)CC1)C(=O)O)C(C)C` [^natLu-2, metal not drawn] (H-ILRWSRKLPSVSK(DOTA)-OH; N-terminus and C-terminus assumed): on CXCR4 [3], the 50% inhibitory concentration (IC50) is 122 ± 45 nM.
On to `CC(C)C[C@@H](N)C(=O)N[C@@H](CC(C)C)C(=O)N[C@@H](CCCNC(=N)N)C(=O)N[C@@H](Cc1c[nH]c2ccccc12)C(=O)N[C@@H](CO)C(=O)N[C@@H](CCCNC(=N)N)C(=O)N[C@@H](CCCCN)C(=O)N[C@@H](CC(C)C)C(=O)N1CCC[C@H]1C(=O)N[C@@H](CSSC[C@H](NC(=O)[C@@H]1CCCN1C(=O)[C@H](CC(C)C)NC(=O)[C@H](CCCCN)NC(=O)[C@H](CCCNC(=N)N)NC(=O)[C@H](CO)NC(=O)[C@H](Cc1c[nH]c2ccccc12)NC(=O)[C@H](CCCNC(=N)N)NC(=O)[C@H](CC(C)C)NC(=O)[C@H](N)CC(C)C)C(=O)N[C@H](C(=O)N[C@@H](CO)C(=O)N[C@@H](CCCCNC(=O)CN1CCN(CC(=O)O)CCN(CC(=O)O)CCN(CC(=O)O)CC1)C(=O)O)C(C)C)C(=O)N[C@H](C(=O)N[C@@H](CO)C(=O)N[C@@H](CCCCNC(=O)CN1CCN(CC(=O)O)CCN(CC(=O)O)CCN(CC(=O)O)CC1)C(=O)O)C(C)C` [^natLu-6 dimer, metal not drawn], for which the IC50 at CXCR4 [3] came out at 763 ± 135 nM; at CXCR4 [4], 662 ± 160 nM.
Regarding `CCCCCCCCCCCCCCCC(=O)NCCCC[C@H](NC(=O)[C@H](CCCCN)NC(=O)[C@H](CO)NC(=O)[C@H](Cc1c[nH]c2ccccc12)NC(=O)[C@H](CCCNC(=N)N)NC(=O)[C@@H](NC(=O)[C@@H](N)[C@@H](C)CC)C(C)C)C(=O)N[C@H](C(=O)N1CCC[C@H]1C(=O)N[C@@H](CS)C(=O)N[C@H](C(=O)N[C@@H](CO)C(=O)N[C@@H](CCCCNC(=O)CN1CCN(CC(=O)O)CCN(CC(=O)O)CCN(CC(=O)O)CC1)C(=O)O)C(C)C)C(C)C` [ligand-8, I^1VRWSKK^7(Pal)VPCS^12K(DOTA)] (H-IVRWSKK(Palmitoyl)VPCVSK(DOTA)-OH; N-terminus and C-terminus assumed), the figures for the IC50 at CXCR4 [3] and on CXCR4 [4] were 15 ± 5 nM and 4 ± 2 nM, respectively.
